Here are results for two molecules from publication PMC6829862, “Gγ and Gα Identity Dictate a G-Protein Heterotrimer Plasma Membrane Targeting” (Cells, 2019).

This assay addresses T1, mCherry–Gβ1γ2 dimer (UniProt P62873 1-340; P59768 1-71, 20-carbon geranylgeranyl lipid on the cysteine of the C-terminal CaaX motif (said of Gγ2 in general)).
T1 construct: Gβ1 subunit; cDNA in pcDNA3.1+ from UMR cDNA Resource Center; FP cloned at the N-terminus; Gγ2 subunit; source: HEK 293, transiently co-transfected (mCherry–Gβ1 and Gγ2), in living cells; not shown: mCherry, N-terminal, kept
Put plainly: FRET or BRET; FLIM-FRET in living transiently transfected HEK 293 cells at 37 °C; donor Citrine in Gα, acceptor mCherry on Gβ1 with the appropriate Gγ; efficiency E = 1 − τda/τd from the short lifetime component τ1 (donor alone 2.7 ± 0.1 ns), analysed only at the plasma membrane; GppNHp added to the culture did not change the signal. The settings on record: partners not purified. (In general: BRET reads energy transfer from a luciferase to a nearby fluorophore.)

B1: Citrine–Gαi3 (natural protein)
chain: MGCTLSAEDKAAVERSKMIDRNLREDGEKAAKEVKLLLLGAGESGKSTIVKQMKIIHEDGYSEDECKQYKVVVYSNTIQSIIAIIRAMGRLKIDFGEAARADDARQLFVLAGSAEEGVMTPELAGVIKRLWRDGGVQACFSRSREYQLNDSASYYLNDLDRISQSNYIPTQQDVLRTRVKTTGIVETHFTFKDLYFKMFDVGGQRSERKKWIHCFEGVTAIIFCVALSDYDLVLAEDEEMNRMHESMKLFDSICNNKWFTETSIILFLNKKDLFEEKIKRSPLTICYPEYTGSNTYEEAAAYIQCQFEDLNRRKDTKEIYTHFTCATDTKNVQFVFDAVTDVIIKNNLKECGLY
notes: cDNA in pcDNA3.1+ from UMR cDNA Resource Center; also called loop-tagged Gαi3; source: HEK 293, transiently transfected, in living cells; not shown: Citrine, internal (after residue 114), kept
Regarding B1, the FRET efficiency was found to be 50%.

B2: Citrine–GαsIEK (natural protein)
chain: MGCLGNSKTEDQRNEEKAQREANKKAAAQLQKDKQVYRATHRLLLLGAGESGKSTIVKQMRILHVNGFNGNSDGEKATKVQDIKNNLKEAIETIVAAMSNLVPPVELANPENQFRVDYILSVMNVPDFDFPPEFYEHAKALWEDEGVRACYERSNEYQLIDCAQYFLDKIDVIKQADYVPSDQDLLRCRVLTSGIFETKFQVDKVNFHMFDVGGQRDERRKWIQCFNDVTAIIFVVASSSYNMVIREDNQTNRLQEALNLFKSIWNNRWLRTISVILFLNKQDLLAEKVLAGKSKIEDYFPEFARYTTPEDATPEPGEDPRVTRAKYFIRDEFLRISTASGDGRHYCYPHFTCAVDTENIRRVFNDCRDIIQRMHLRQYELL
notes: Gαs subunit with the conserved region Ile26–Glu27–Lys28 (G.HN.43–45) changed to three alanines; cDNA from UMR cDNA Resource Center; the L1 loop Glu71-Ser82 exchanged for the fluorescent protein as in m1; Mutations made with the Quick Change method on the Gαs fusion; also called mutant GαsIEK protein; source: HEK 293, transiently transfected; in living cells (FLIM-FRET) and in cell lysate or …
In turn, B2 had an FRET efficiency of 12.9%.
